Data on two molecules can be found in paper PMC4874835 (Nature, 2016).

Series [1] has as its target cMCU-ΔNTD (C. elegans MCU residues 167-316, N-terminal domain deleted) (C. elegans) (UniProt Q21121). The series is described as follows: cross-linking.
Series [2] has the same target. The series is described as follows: negative stain EM.
Series [3] has the same target. The series is described as follows: SEC-MALS.
Series [4] deals with the molecule itself. In words: cross-linking.

The term stoichiometry N denotes the number of molecules, sites or subunits per partner or assembly. In the case of “cMCU-ΔNTD (C. elegans MCU residues 167-316, N-terminal domain deleted) (from UniProt Q21121 167-316) (domain or fragment)”, the stoichiometry N in series [1], in series [2] and in series [3] was 5 throughout.
With KQNFDIEKYNRLVTEVDELRNQLKRMRDPLE [CCH peptide (cMCU residues 288-316 plus C-terminal L and E)], the “stoichiometry N” value in series [4] stood at 5.
